Test results reported in PMC3779320, “Bub3 reads phosphorylated MELT repeats to promote spindle assembly checkpoint signaling” (eLife, 2013).
Where a chain is given by its changes, count along the chain named. Square brackets hold non-standard residues; d marks the D form. Ends that are not written are not given here. pT = C[C@@H](OP(=O)(O)O)[C@H](N)C(=O)O

What was measured:
Bub1^289–359–Bub3 = biological target: T1, Bub1^289–359–Bub3 (Saccharomyces cerevisiae, UniProt P26449+P41695); assay: ITC binding of MELT peptides to Bub1^289–359–Bub3 (wild type); conditions: 25°C, 20 mM Tris pH7.5, 150 mM NaCl, 1 mM DTE, complex 30 µM in cell, peptide 400 µM
T1 construct: S. cerevisiae Bub1^289–359 and for full length Bub3; GST (N, cleaved yes); made in house; host or cells: E. coli BL21 DE3 plysS
T1 sequence (P26449 1-341): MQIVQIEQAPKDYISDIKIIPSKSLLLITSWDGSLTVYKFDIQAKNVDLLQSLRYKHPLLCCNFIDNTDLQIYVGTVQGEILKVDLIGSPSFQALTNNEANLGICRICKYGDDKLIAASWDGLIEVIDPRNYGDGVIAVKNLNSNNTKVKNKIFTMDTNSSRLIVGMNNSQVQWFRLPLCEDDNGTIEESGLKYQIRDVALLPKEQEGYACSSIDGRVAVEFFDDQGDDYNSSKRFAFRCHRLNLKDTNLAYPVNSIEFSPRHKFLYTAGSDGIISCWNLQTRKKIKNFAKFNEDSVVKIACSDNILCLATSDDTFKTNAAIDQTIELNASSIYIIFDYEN
T1 sequence (P41695 289-359): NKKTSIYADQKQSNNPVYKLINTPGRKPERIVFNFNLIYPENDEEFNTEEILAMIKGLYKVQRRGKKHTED
Excerpt: We generated recombinant ScBub1^289–359–Bub3 (where the Bub1 segment is equivalent to the minimal kinetochore targeting region of human Bub1 [[Krenn et al., 2012]]) by bacterial co-expression and purified it to homogeneity (Figure 1D). To assess whether Bub1–Bub3 binds directly to MELT^P sequences, we tested its ability to bind MELT sequences in quantitative isothermal titration calorimetry (ITC) binding experiments. 19-residue synthetic peptides encompassing the sequences of the second and fourth MELT^P motifs of Spc105/Knl1 (indicated as MELT2 and MELT4, respectively), each flanked by four and eleven residues on the N- and C-terminal ends, respectively, were tested (Figure 1C). […] Thus, ScBub1^289–359–Bub3 is sufficient for the reconstitution of tight interactions with two MELT^P peptides in vitro that recapitulate a salient feature of this interaction, its dependency on phosphorylation.
cDNA sequences coding for S. cerevisiae Bub1^289–359 and for full length Bub3 were subcloned in the first and second cassettes of pGEX-6P-2rbs vector ([Ciferri et al., 2005]). In this construct, the cDNA encoding Bub1^289–359 was sub-cloned in frame with the gene encoding GST and a cleavage site for PreScission protease, and was translated from the first ribosome-binding site (rbs). Untagged Bub3 was subcloned downstream of the second rbs in the same vector. Expression was carried out in BL21 DE3 plysS cells in LB medium by auto-induction with 0.3% lactose at 18°C for approximately 16 hr. Cells were harvested by centrifugation and resuspended in Buffer A (20 mM Tris pH 7.5, 300 mM NaCl, 10% Glycerol, 1 mM DTE, 1 mM EDTA pH 8.0, 1 mM PMSF) typically at a dilution of 3 ml lysis buffer per ml of bacterial pellet. Cells were lysed by sonication, and the lysates were cleared by centrifugation at 75000 × g for 45 min. The resulting clear supernatant was incubated with gentle rotation with 1/50 (vol/vol) of GSH-sepharose slurry (GE Healthcare) for 1–2 hr at 4°C. Beads were washed with 150 vol of Buffer A. To elute the Bub1–Bub3 complex from beads, GST-PreScission protease (0.02 mg/mg of protein target) was added for 16 hr at 4°C. The eluate was concentrated on Amicon Ultra Centrifugal Filters MwCO 3000 (Merck Millipore, Billerica, MA) and further purified by size exclusion chromatography (SEC) on a Superdex 75 16/60 column using GF buffer (20 mM Tris pH 7.5, 150 mM NaCl, 1 mM DTE). The complex eluted in a single peak with apparently stoichiometric amounts of Bub1^289–359 and Bub3 and was subsequently concentrated to ∼10 mg/ml for crystallization or to 2–4 mg/ml for ITC experiments. […]
Binding isotherm was measured at 25°C by isothermal titration calorimetry on a MicroCal ITC200 device (GE Healthcare, Piscataway, NJ). […]

Bub1^289–359–R314A–Bub3 = biological target: T2, Bub1^289–359–R314A–Bub3 (Saccharomyces cerevisiae, UniProt P26449+P41695, R314A); assay type: binding; conditions: ITC; Bub3-Bub1^R314A mutant compared to wild type Bub3–Bub1; MELT4^P: data not shown
T2 construct: S. cerevisiae Bub1^289–359 and for full length Bub3; ITC experiment with the MELT2^P peptide and the Bub1^289–359–R314A–Bub3 complex; GST (N, cleaved yes); made in house; host or cells: E. coli BL21 DE3 plysS
T2 sequence (P41695 289-359 R314A, one chain of several): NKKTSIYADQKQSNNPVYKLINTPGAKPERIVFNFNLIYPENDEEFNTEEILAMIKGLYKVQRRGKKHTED
Excerpt: Such function of Bub1 is probably exerted primarily through its structuring effects on the 4-stranded β-sheet ‘roof’ that dominates the peptide-binding region of Bub3 and which restrains the position of the positively charged residues in the ‘north’ area of the MELT^P-binding site (Figure 4E). Additionally, we observe that Arg314^Bub1, in the β1-β2 loop, contributes to the interaction with the phosphate group of P-Thr172^Spc105/Knl1 (the interaction, however, is only observed in one of the two complexes in the asymmetric unit, and in proximity of a crystal contact) and is therefore directly engaged in the interaction with the MELT2^P peptide. In ITC measurements, we observed a ∼fourfold reduction in the binding affinity of the Bub3-Bub1^R314A mutant for the MELT2^P peptide, in agreement with a role of Arg314^Bub1 is in the interaction of the Bub1-Bub3 complex with MELT2^P (Figure 4F). Similarly, Bub3–Bub1^R314A bound the MELT4^P with ∼threefold decreased affinity compared to wild type Bub3–Bub1 (data not shown).
Binding isotherm was measured at 25°C by isothermal titration calorimetry on a MicroCal ITC200 device (GE Healthcare, Piscataway, NJ). All samples were extensively dialysed into fresh GF buffer (20 mM Tris pH7.5, 150 mM NaCl, 1 mM DTE). […]

[1] = biological target: ScBub1^289–359–Bub3 complex (S. cerevisiae) (UniProt P41695); assay: ITC; 25°C, MicroCal ITC200; 20 mM Tris pH7.5, 150 mM NaCl, 1 mM DTE; Bub1^289–359–Bub3 in the cell at 30 µM, titrated with thirty-five 2-µl injections of peptide at 400 µM; single-site binding model
[2] = biological target: T3, Bub1^289–359–R314A–Bub3 complex (S. cerevisiae, UniProt P41695 289-359; P26449 1-341, R314A); assay: ITC; data not shown; method taken from the sentence before it (ITC measurements); conditions: both partners purified
T3 construct: Bub3, S. cerevisiae, full length; Probably GST-tagged on Bub1 and cleaved as the wild type; also called Bub3-Bub1^R314A mutant; Bub3–Bub1^R314A
T3 sequence (looked up) 1: T1 sequence (P41695 289-359) with R26A
T3 sequence (looked up) 2: T1 sequence (P26449 1-341)

Bub3 (S. cerevisiae) = biological target: T4, Bub3 (S. cerevisiae) (S. cerevisiae, UniProt P26449 1-341); assay: ITC; 25°C, MicroCal ITC200; 20 mM Tris pH7.5, 150 mM NaCl, 1 mM DTE; Bub1^289–359–Bub3 in the cell at 30 µM, titrated with thirty-five 2-µl injections of peptide at 400 µM; single-site binding model; conditions: both partners purified
T4 construct: Bub3, S. cerevisiae, full length (7-bladed WD40 beta-propeller); The methods tell the construct only for Bub3 co-expressed with Bub1; also called ScBub3; purified Bub3; source: Bub3 alone: purified, expression not described
T4 sequence (looked up): T1 sequence (P26449 1-341)

[3] = biological target: T3, Bub1^289–359–R314A–Bub3 complex; assay: as above; conditions: both partners purified
[4] = biological target: T5, Bub1^289–359–Bub3^R217A complex (S. cerevisiae, UniProt P41695 289-359; P26449 1-341, R217A); assay: as above; conditions: both partners purified
T5 construct: Bub3, S. cerevisiae, full length, with R217A; also called R217A mutant; source: expressed and purified essentially like the wild type complex (E. coli, GSH-sepharose, PreScission cleavage, SEC)
T5 sequence (looked up) 1: T1 sequence (P41695 289-359)
T5 sequence (looked up) 2: T1 sequence (P26449 1-341) with R217A

[5] = biological target: T6, Bub1^289–359–Bub3^R239A complex (S. cerevisiae, UniProt P41695 289-359; P26449 1-341, R239A); assay: as above; conditions: both partners purified
T6 construct: Bub3, S. cerevisiae, full length, with R239A; also called R239A mutant; source: expressed and purified essentially like the wild type complex (E. coli, GSH-sepharose, PreScission cleavage, SEC)
T6 sequence (looked up) 1: T1 sequence (P41695 289-359)
T6 sequence (looked up) 2: T1 sequence (P26449 1-341) with R239A

[6] = biological target: T7, Bub1^289–359–R314A–Bub3 complex (S. cerevisiae, UniProt P41695 289-359; P26449 1-341, R314A); assay: ITC
T7 sequence 1: T1 sequence (P41695 289-359) with R26A
T7 sequence 2: T1 sequence (P26449 1-341)

Molecule: GGGPA{pTHR}PKKAKKL [H1^P, Histone H1-derived phosphorylated peptide GGGPA{pTHR}PKKAKKL, AnaSpec catalog number 61741, reference compound]
- binding (in words) (Bub1^289–359–Bub3): No binding
- binding (in words) (Bub1^289–359–Bub3; listed as unrelated phospho-peptide): did not show any binding affinity

Molecule: DTVEGEPIDL{PTHR}EYESKPYVPN [MELT4^P]
- binding (in words) (Bub1^289–359–Bub3): no binding
- fold reduction in binding affinity (Bub1^289–359–R314A–Bub3): threefold

Molecule: MELT4^P peptide (phosphorylated fourth MELT repeat of Spc105/Knl1)
- Kd [1]: 1.3 µM

Molecule: MELT2^P peptide (phosphorylated second MELT repeat of Spc105/Knl1)
- Kd [1]: 0.2 µM

B1: MELT4^P peptide (phosphorylated fourth MELT repeat of Spc105/Knl1) (peptide)
peptide: DTVEGEPIDL[pT]EYESKPYVPN
notes: Spc105/Knl1, S. cerevisiae, fourth MELT repeat; also called fourth MELT^P peptide; source: synthetic peptide, custom made by GeneScript (95% purity)
- fold decrease in affinity against wild type Bub3–Bub1 [2]: ~3 fold

B2: MELT2^P peptide (phosphorylated second MELT repeat of Spc105/Knl1) (peptide)
peptide: DPTSMEM[pT]EVFPRSIRQKN
notes: Spc105/Knl1, S. cerevisiae, second MELT repeat with four residues before and eleven after; Met169, Glu170, Met171, P-Thr172, Phe175 are the printed numbers; The end groups are told only for the peptide used for crystallisation; also called MELT^P peptide; Spc105/Knl1 phosphopeptide; source: synthetic peptide, custom made by GeneScript (95% purity)
- Kd (Bub3 (S. cerevisiae)): 2 µM
- fold reduction in binding affinity against wild type Bub1^289–359–Bub3 [3]: ~4 fold
- Kd [4]: 2.7 µM
- Kd [5]: 5 µM

Molecule: DPTSMEM[pT]EVFPRSIRQKN (not fully specified)
- Kd [6]: 0.79 µM
